Data reported in article PMC5585231.

Target: CD3 ζ SNID2 peptide (22-mer)
Experiment: ITC; MicroCal iTC200; 20 mM HEPES (pH 8.0), 100 mM NaCl, 25 °C; typically Nef at 200 μM injected from the syringe to 20 μM CD3 ζ in the cell

Sequence of CD3 ζ SNID2 peptide (22-mer) (P20963 other isoform, or with tags, fused parts or gaps): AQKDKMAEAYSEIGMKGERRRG

Substance: SIV_(mac239) Nef 66–235 (SIV Nef-B) (from UniProt Q5QGG3 66-235) (domain or fragment)
- Kd: 2600 nM
